{
  "source": "patent US20180369355A1",
  "about": "(TEXAS A AND M UNIVERSITY SYSTEM, published 2018)",
  "binders": {"B1": {"name": "ClfAPWY (other)", "chain": "VAADAPAAGTDITNQLTNVTVGIDSGTTVYPHQAGYVKLNYGFSVPNSAVKGDTFKITVPKELNLNGVTSTAKVPPIMAGDQVLANGVIDSDGNVIYTFTDYVNTKDDVKATLTMPAYIDPENVKKTGNVTLATGIGSTTANKTVLVDYEKYGKFYNLSIKGTIDQIDKTNNTYRQTIYVNPSGDNVIAPVLTGNLKPNTDSNALIDQQNTSIKVYKVDNAADLSESYFVNPENFEDVTNSVNITFANPNQYKVEFNTPDDQITTPYIVVVNGHIDPNSKGDLALRSTLYGANSNIIARSMSWDNEVAFNNGSGSGDGIDKPVVPEQPDEPGEIEPIPE", "notes": "also called triple mutant"}, "B2": {"name": "Fg γ-peptide P16 (peptide)", "peptide": "GEGQQHHLGGAKQAGAV", "notes": "domain: γ-peptide; Position 410 probably counts on the mature γ-chain; also called P16 peptide; Fg-γ P16 peptide"}},
  "key": {"human fibrinogen [1]": {"target": "T1, human fibrinogen (human, UniProt P02671 20-629; P02675 31-491; P02679 27-437)", "T1 construct": "also called Fg; intact Fg", "T1 sequence 1": "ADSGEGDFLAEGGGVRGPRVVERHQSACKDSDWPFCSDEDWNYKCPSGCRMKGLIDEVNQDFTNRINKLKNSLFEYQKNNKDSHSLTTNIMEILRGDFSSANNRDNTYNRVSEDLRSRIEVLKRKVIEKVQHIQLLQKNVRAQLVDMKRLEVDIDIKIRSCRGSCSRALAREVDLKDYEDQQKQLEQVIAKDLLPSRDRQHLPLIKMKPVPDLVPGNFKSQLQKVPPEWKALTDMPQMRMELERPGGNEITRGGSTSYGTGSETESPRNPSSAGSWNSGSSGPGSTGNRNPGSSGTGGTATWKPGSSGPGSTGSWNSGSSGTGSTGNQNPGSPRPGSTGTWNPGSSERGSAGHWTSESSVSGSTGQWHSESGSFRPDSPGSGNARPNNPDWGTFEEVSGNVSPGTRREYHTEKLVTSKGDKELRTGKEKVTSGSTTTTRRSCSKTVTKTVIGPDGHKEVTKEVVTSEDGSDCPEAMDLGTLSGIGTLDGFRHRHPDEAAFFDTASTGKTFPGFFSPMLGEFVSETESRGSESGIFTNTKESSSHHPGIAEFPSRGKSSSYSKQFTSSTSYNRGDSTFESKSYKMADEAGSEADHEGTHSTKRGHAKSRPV", "T1 sequence 2": "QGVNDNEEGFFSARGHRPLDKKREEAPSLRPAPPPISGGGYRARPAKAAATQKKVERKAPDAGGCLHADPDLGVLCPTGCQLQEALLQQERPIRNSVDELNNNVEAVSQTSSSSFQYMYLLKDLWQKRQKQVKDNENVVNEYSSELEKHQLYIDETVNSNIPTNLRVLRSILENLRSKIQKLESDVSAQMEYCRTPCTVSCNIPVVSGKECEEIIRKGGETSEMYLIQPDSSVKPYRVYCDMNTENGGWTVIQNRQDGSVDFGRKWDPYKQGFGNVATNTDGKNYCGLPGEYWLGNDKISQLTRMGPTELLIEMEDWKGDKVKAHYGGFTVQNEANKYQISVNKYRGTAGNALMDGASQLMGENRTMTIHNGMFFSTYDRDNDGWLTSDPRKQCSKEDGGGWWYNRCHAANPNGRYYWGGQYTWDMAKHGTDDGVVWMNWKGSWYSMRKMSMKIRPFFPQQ", "T1 sequence 3": "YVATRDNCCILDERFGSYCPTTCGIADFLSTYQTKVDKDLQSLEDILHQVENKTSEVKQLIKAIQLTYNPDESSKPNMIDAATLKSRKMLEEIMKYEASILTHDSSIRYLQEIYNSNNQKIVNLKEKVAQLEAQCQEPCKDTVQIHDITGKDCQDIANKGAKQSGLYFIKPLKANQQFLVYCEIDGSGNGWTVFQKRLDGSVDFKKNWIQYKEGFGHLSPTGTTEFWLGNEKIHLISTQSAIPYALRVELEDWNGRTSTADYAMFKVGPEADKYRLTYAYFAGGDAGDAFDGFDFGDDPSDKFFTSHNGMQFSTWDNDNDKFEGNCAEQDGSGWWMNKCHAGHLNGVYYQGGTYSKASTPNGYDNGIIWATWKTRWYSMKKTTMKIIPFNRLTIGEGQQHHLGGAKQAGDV", "assay": "SPR; immobilized Fg against γ-peptide"}, "Fg D-fragment [2]": {"target": "T2, Fg D-fragment (UniProt P02671 130-216; P02675 164-491; P02679 114-437)", "T2 construct": "domain: D-fragment; also called D-domain", "T2 sequence 1": "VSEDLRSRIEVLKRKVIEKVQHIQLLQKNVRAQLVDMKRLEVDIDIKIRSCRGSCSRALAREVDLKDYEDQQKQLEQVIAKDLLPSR", "T2 sequence 2": "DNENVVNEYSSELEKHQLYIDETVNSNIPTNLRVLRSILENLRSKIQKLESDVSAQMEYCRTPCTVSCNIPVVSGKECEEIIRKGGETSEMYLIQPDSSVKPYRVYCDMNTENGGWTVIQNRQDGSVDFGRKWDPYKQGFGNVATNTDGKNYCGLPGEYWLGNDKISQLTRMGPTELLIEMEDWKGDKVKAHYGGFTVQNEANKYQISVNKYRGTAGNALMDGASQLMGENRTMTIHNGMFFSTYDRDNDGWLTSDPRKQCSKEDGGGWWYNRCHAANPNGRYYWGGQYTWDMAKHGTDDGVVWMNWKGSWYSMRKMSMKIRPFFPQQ", "T2 sequence 3": "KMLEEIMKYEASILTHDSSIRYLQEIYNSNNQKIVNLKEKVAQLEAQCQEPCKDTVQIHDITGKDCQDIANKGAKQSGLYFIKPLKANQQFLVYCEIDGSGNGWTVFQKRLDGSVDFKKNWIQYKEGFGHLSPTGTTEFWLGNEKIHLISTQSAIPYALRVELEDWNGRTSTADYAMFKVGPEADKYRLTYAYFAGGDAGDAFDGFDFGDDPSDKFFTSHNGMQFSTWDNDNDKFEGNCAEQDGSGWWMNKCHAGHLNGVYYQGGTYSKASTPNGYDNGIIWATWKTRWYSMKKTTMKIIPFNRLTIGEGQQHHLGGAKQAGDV", "assay": "SPR; immobilized Fg D-fragment against γ-peptide"}, "Fg D-fragment [3]": {"target": "T2, Fg D-fragment", "assay": "SPR (Biacore), drawn table Ligand/analyte: Fg D-fragment immobilized, ClfA N3 domain (ClfA370-559) as analyte"}, "human fibrinogen [4]": {"target": "T1, human fibrinogen", "assay": "SPR (Biacore), drawn table Ligand/analyte: fibrinogen immobilized, ClfA N3 domain (ClfA370-559) as analyte"}, "Fg D-fragment [5]": {"target": "T2, Fg D-fragment", "assay": "SPR; immobilized D-fragment; estimated; SPR, D-fragment, estimated, data not shown"}, "Fg γ-peptide P16 [6]": {"target": "B2", "assay": "ITC, 0.5 mM P16 peptide injected into 30 µM ClfAPWY; OneSites fit box"}, "Fg γ-peptide P16 [7]": {"target": "B2", "assay": "ITC, 0.5 mM P16 peptide injected into 30 µM ClfAPWY; OneSites fit box, unit not given"}, "human fibrinogen [8]": {"target": "T1, human fibrinogen", "assay": "SPR; immobilized Fg; estimated; SPR, Fg, estimated, data not shown"}, "ClfACC [9]": {"target": "T3, ClfACC (S. aureus, UniProt Q53653 229-545, engineered disulfide bond between C327 and C541)", "T3 construct": "also called disulfide bond-closed ClfACC; closed form of ClfA N2N3", "T3 sequence": "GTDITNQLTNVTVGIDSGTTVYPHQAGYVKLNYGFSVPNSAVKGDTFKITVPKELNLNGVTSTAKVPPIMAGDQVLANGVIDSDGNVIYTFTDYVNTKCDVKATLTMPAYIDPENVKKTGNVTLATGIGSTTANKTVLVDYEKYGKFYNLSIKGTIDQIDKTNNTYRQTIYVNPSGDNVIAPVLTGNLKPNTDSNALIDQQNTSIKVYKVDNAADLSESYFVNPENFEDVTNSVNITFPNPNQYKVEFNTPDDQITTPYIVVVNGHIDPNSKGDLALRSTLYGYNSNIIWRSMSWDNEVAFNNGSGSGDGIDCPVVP", "assay": "ITC, peptide titrated into ClfACC (paragraph 56 gives this KD as '9' without a unit and calls the peptide a synthetic C-terminal γ-chain peptide; the sheet names it P16)"}, "ClfAPWY": {"target": "B1", "assay": "ITC; 0.5 mM P16 injected into 30 µM ClfAPWY, 30 °C; ITC, P16 peptide"}, "ClfACC [10]": {"target": "T3, ClfACC", "assay": "ITC; peptide titrated into a cell containing ClfACC; the unit is missing in the print; γ-chain peptide titrated into ClfACC"}},
  "data": [
    {"binder": "ClfA370-559 (other, also called recombinant form of N3) EKYGKFYNLSIKGTIDQIDKTNNTYRQTIYVNPSGDNVIAPVLTGNLKPNTDSNALIDQQNTSIKVYKVDNAADLSESYFVNPENFEDVTNSVNITFPNPNQYKVEFNTPDDQITTPYIVVVNGHIDPNSKGDLALRSTLYGYNSNIIWRSMSWDNEVAFNNGSGSGDGIDKPVVPEQPDEPGEIEPIPE", "values": [
      {"measurement": "fold lower KD than for the γ-peptide", "setting": "human fibrinogen [1]", "result": "~10", "unit": "fold"},
      {"measurement": "fold lower KD than for the γ-peptide", "setting": "Fg D-fragment [2]", "result": "~10", "unit": "fold"},
      {"measurement": "Kd", "setting": "Fg D-fragment [3]", "result": 6.9, "unit": "µM"},
      {"measurement": "Kd", "setting": "human fibrinogen [4]", "result": 5.9, "unit": "µM"}
    ]},
    {"binder": "B1", "values": [
      {"measurement": "Kd", "setting": "Fg D-fragment [5]", "result": 17, "unit": "µM"},
      {"measurement": "N", "setting": "Fg γ-peptide P16 [6]", "result": 1.23},
      {"measurement": "ΔH", "setting": "Fg γ-peptide P16 [7]", "result": -6790},
      {"measurement": "ΔS", "setting": "Fg γ-peptide P16 [7]", "result": 1.59},
      {"measurement": "Kd", "setting": "human fibrinogen [8]", "result": 10, "unit": "µM"}
    ]},
    {"binder": "B2", "values": [
      {"measurement": "Kd", "setting": "ClfACC [9]", "result": 9, "unit": "µM"},
      {"measurement": "Kd", "setting": "ClfAPWY", "result": "~5.8", "unit": "µM"}
    ]},
    {"binder": "GEGQQHHLGGAKQAGDV (domain: C-terminal γ-chain peptide; also called Fg γ-peptide; synthetic Fg γ-peptide)", "note": "[synthetic C-terminal γ-chain peptide]", "values": [
      {"measurement": "Kd", "setting": "ClfACC [10]", "result": 9, "unit": "µM"}
    ]}
  ]
}
